Paper PMC11500311, “Binding of a single nitric oxide molecule is sufficient to disrupt DNA binding of the nitrosative stress regulator NsrR†” (Chemical Science, 2024)

Legend:
[1] = target: the molecule itself; experiment: native MS; as-isolated and reconstituted NsrR, 8 μM [4Fe–4S], ionised from 100 mM ammonium acetate pH 8.0, positive-mode ESI, no DNA
[2] = target: T1, holo NsrR ([4Fe-4S] in each subunit) (Streptomyces coelicolor, UniProt Q9L132 1-148); experiment: native MS; about equal free and DNA-bound holo NsrR before NO; SPR: 10 mM HEPES, 150 mM NaCl, 0.05% polysorbate 20, pH 7.4, 25 C, anaerobic; native MS: 100 mM ammonium acetate pH 8 (30 C for nitrosylation); details: protein: recombinant; tags: none; chain copies: 2; blunt
T1 sequence: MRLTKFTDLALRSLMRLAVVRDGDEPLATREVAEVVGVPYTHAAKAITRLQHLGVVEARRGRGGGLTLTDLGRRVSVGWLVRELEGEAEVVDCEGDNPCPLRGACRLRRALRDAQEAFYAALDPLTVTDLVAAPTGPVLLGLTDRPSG

[3] = target: T1, holo NsrR ([4Fe-4S] in each subunit); experiment: native MS; 100 mM ammonium acetate pH 8; relative affinity; SPR: 10 mM HEPES, 150 mM NaCl, 0.05% polysorbate 20, pH 7.4, 25 C, anaerobic; native MS: 100 mM ammonium acetate pH 8 (30 C for nitrosylation); details: protein: recombinant; tags: none; chain copies: 2; blunt

B1: NsrR from Streptomyces coelicolor, non-tagged (natural protein)
chain: MRLTKFTDLALRSLMRLAVVRDGDEPLATREVAEVVGVPYTHAAKAITRLQHLGVVEARRGRGGGLTLTDLGRRVSVGWLVRELEGEAEVVDCEGDNPCPLRGACRLRRALRDAQEAFYAALDPLTVTDLVAAPTGPVLLGLTDRPSG
notes: NsrR, Rrf2-family transcriptional regulator of Streptomyces coelicolor A3, locus SCO7427; non-tagged construct from pNsrR; Homodimer; Each subunit can carry a [4Fe–4S] cluster: two clusters per dimer is holo, one is hemi-apo, none is apo; All three forms were observed as dimers by native MS (32 608, 32 257 and 31 907 Da); also called non-tagged NsrR; [4Fe–4S]; NsrR; source: E. coli BL21 λDE3 …
stoichiometry N [1]: 2

B2: hmpA2 23 bp native MS (dsDNA)
DNA 1: AACAAGCATCTGAGATCCCAGTT
DNA 2: AACTGGGATCTCAGATGCTTGTT
binding result [2]: binds

B3: hmpA1 22 bp native MS (dsDNA)
DNA 1: AACACGAATATCATCTACCAAT
DNA 2: ATTGGTAGATGATATTCGTGTT
Kd [3]: 3000 ± 100 nM
